According to patent publication US20190375786A1, “STABLE PEPTIDES AND METHODS OF USE THEREOF” (Fred Hutchinson Cancer Research Center, priority 2016, published 2019):

Key:
[1] = Resistance to elevated temperature, HPLC; format: physicochemical; conditions: HPLC peak vs untreated peptide; for Resistance to Temperature (75° C.): 75° C. for one hour; for Resistance to Temperature (100° C.): 100° C. for one hour
Summary of the method: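 Peptides were incubated at room temperature, 70° C or 100° C for one hour in ddH2O; another protocol used 70° C, 75° C or 100° C for one hour in 0.5 mM PBS, then pelleting and analysis of the supernatant. Remaining peptide was measured by C-18 RP-HPLC, 5–45% acetonitrile/0.1% TFA over 10 min.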

[2] = Resistance to reduction by DTT, RP-HPLC; format: physicochemical; conditions: 10 mM DTT in PBS, room temperature, 30 minutes; HPLC peak vs untreated peptide
Summary of the method: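 Peptide (12.5 μg from a 2 mg/ml stock, or 0.015 mM final in PBS) was held 30 min at room temperature with or without 10 mM DTT. Reduced and non-reduced forms were compared by C-18 RP-HPLC using a 5–45% acetonitrile/0.1% TFA gradient over 10 min, with detection at 214 and 280 nm.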

trypsin = trypsin (Sus scrofa, UniProt P00761); test: Trypsin digestion resistance of soluble peptide, RP-HPLC; format: in vitro ADME, porcine; design: purchased Sigma Aldrich 6567; conditions: 500 U/ml trypsin, 30 minutes at 37.5° C.; HPLC peak vs untreated peptide
Summary of the method: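 12.5 μg soluble peptide digested with 500 U/ml porcine trypsin in PBS, 30 min at 37.5° C; quenched with soybean trypsin inhibitor, with or without 10 mM DTT reduction afterwards. Intact peptide assessed by C-18 RP-HPLC, 5-45% acetonitrile/0.1% TFA gradient over 10 min.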

pepsin = pepsin (Sus scrofa, UniProt P00791); test: Pepsin digestion resistance in simulated gastric fluid, RP-HPLC; format: in vitro ADME, porcine; design: purchased Sigma Aldrich P7012; conditions: 500 U/ml pepsin in SGF pH 1.05, 30 minutes at 37.5° C.; HPLC peak vs untreated peptide
Summary of the method: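 Peptide (12.5 μg) incubated 30 min at 37.5 °C with or without 500 U/ml pepsin in simulated gastric fluid (pH 1.05; 2% NaCl in 0.7% HCl); some reactions quenched with 100 mM Tris and 10 mM DTT. Intact peptide followed by C-18 RP-HPLC (5–45% acetonitrile/0.1% TFA over 10 min) at 214 and 280 nm.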

Chain of pepsin (P00791 60-385): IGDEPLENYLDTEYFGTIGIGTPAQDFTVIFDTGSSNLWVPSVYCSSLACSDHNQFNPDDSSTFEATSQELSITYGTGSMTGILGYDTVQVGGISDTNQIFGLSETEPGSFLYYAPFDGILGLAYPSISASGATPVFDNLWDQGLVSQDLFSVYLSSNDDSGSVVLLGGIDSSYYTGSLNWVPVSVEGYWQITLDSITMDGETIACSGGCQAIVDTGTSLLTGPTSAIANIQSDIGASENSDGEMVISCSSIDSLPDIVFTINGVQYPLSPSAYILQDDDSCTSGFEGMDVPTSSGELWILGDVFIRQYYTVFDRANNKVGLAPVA
Chain of trypsin (P00761 9-231): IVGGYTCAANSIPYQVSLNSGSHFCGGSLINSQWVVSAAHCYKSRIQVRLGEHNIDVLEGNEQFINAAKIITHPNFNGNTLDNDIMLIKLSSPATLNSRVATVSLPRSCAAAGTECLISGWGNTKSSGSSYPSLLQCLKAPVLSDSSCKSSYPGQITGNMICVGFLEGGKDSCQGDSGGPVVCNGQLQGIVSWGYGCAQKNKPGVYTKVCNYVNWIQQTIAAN

For “11 (GSNCAGYMRECKEKLCCSGYVCSSRWKWCVLPAPWRR) [compound 11]”, the “Resistance to Temperature (75° C.)” value [1] was “High (A peptide classified as high indicates that the majority (at least 75%) of the HPLC peak of the treated peptide is still present as compared to the HPLC peak of the untreated peptide)”, the “Resistance to Temperature (100° C.)” value [1] was “Low (A peptide classified as low indicates that the majority (over 75%) of the HPLC peak of the treated peptide disappeared as compared to the HPLC peak of the untreated peptide)” and the “Resistance to DTT Reduction (10 mM)” value [2] was “Low (A peptide classified as low indicates that the majority (over 75%) of the HPLC peak of the treated peptide disappeared as compared to the HPLC peak of the untreated peptide)”. The “Resistance to Trypsin (500 U/ml)” value (trypsin) was “High (A peptide classified as high indicates that the majority (at least 75%) of the HPLC peak of the treated peptide is still present as compared to the HPLC peak of the untreated peptide)” and the “Resistance to Pepsin (500 U/ml)” value (pepsin) was “High (A peptide classified as high indicates that the majority (at least 75%) of the HPLC peak of the treated peptide is still present as compared to the HPLC peak of the untreated peptide)”.
With “32 (GSSCAKPRENCNRMNILCCRGECVCPTFGDCFCYGD) [compound 32]” the “Resistance to Temperature (70° C.)” value ([1]; 70° C. for one hour) was “High (A peptide classified as high indicates that the majority (at least 75%) of the HPLC peak of the treated peptide is still present as compared to the HPLC peak of the untreated peptide)”, the “Resistance to Temperature (75° C.)” value [1] was “High (A peptide classified as high indicates that the majority (at least 75%) of the HPLC peak of the treated peptide is still present as compared to the HPLC peak of the untreated peptide)” and the “Resistance to Temperature (100° C.)” value [1] was “High (A peptide classified as high indicates that the majority (at least 75%) of the HPLC peak of the treated peptide is still present as compared to the HPLC peak of the untreated peptide)”. The “Resistance to DTT Reduction (10 mM)” value [2] was “Low (A peptide classified as low indicates that the majority (over 75%) of the HPLC peak of the treated peptide disappeared as compared to the HPLC peak of the untreated peptide)”, the “Resistance to Trypsin (500 U/ml)” value (trypsin) was “Low (A peptide classified as low indicates that the majority (over 75%) of the HPLC peak of the treated peptide disappeared as compared to the HPLC peak of the untreated peptide)” and the “Resistance to Pepsin (500 U/ml)” value (pepsin) was “High (A peptide classified as high indicates that the majority (at least 75%) of the HPLC peak of the treated peptide is still present as compared to the HPLC peak of the untreated peptide)”.
With “13 (GSAEIIRCSGTRECYAPCQKLTGCLNAKCMNKACKCYGCV) [compound 13]” the “Resistance to Temperature (75° C.)” value [1] was “High (A peptide classified as high indicates that the majority (at least 75%) of the HPLC peak of the treated peptide is still present as compared to the HPLC peak of the untreated peptide)”, the “Resistance to Temperature (100° C.)” value [1] was “High (A peptide classified as high indicates that the majority (at least 75%) of the HPLC peak of the treated peptide is still present as compared to the HPLC peak of the untreated peptide)” and the “Resistance to DTT Reduction (10 mM)” value [2] was “Low (A peptide classified as low indicates that the majority (over 75%) of the HPLC peak of the treated peptide disappeared as compared to the HPLC peak of the untreated peptide)”. For the same substance, the “Resistance to Trypsin (500 U/ml)” value (trypsin) was “Low (A peptide classified as low indicates that the majority (over 75%) of the HPLC peak of the treated peptide disappeared as compared to the HPLC peak of the untreated peptide)” and the “Resistance to Pepsin (500 U/ml)” value (pepsin) was “High (A peptide classified as high indicates that the majority (at least 75%) of the HPLC peak of the treated peptide is still present as compared to the HPLC peak of the untreated peptide)”.
For “7 (GSDRDSCIDKSRCSKYGYYQECQDCCKKAGHNGGTCMFFKCKCA) [compound 7]”, the “Resistance to Temperature (75° C.)” value [1] was “High (A peptide classified as high indicates that the majority (at least 75%) of the HPLC peak of the treated peptide is still present as compared to the HPLC peak of the untreated peptide)”, the “Resistance to Temperature (100° C.)” value [1] was “High (A peptide classified as high indicates that the majority (at least 75%) of the HPLC peak of the treated peptide is still present as compared to the HPLC peak of the untreated peptide)” and the “Resistance to DTT Reduction (10 mM)” value [2] was “Low (A peptide classified as low indicates that the majority (over 75%) of the HPLC peak of the treated peptide disappeared as compared to the HPLC peak of the untreated peptide)”. For the same substance, the “Resistance to Trypsin (500 U/ml)” value (trypsin) was “Low (A peptide classified as low indicates that the majority (over 75%) of the HPLC peak of the treated peptide disappeared as compared to the HPLC peak of the untreated peptide)” and the “Resistance to Pepsin (500 U/ml)” value (pepsin) was “High (A peptide classified as high indicates that the majority (at least 75%) of the HPLC peak of the treated peptide is still present as compared to the HPLC peak of the untreated peptide)”.
With “15 (GSCIGEGVPCDENDPRCCFGLVCLKPTLHGIWYKSYYCYKK) [compound 15]” the “Resistance to Temperature (75° C.)” value [1] was “High (A peptide classified as high indicates that the majority (at least 75%) of the HPLC peak of the treated peptide is still present as compared to the HPLC peak of the untreated peptide)”, the “Resistance to Temperature (100° C.)” value [1] was “Low (A peptide classified as low indicates that the majority (over 75%) of the HPLC peak of the treated peptide disappeared as compared to the HPLC peak of the untreated peptide)” and the “Resistance to DTT Reduction (10 mM)” value [2] was “Low (A peptide classified as low indicates that the majority (over 75%) of the HPLC peak of the treated peptide disappeared as compared to the HPLC peak of the untreated peptide)”. The “Resistance to Trypsin (500 U/ml)” value (trypsin) was “Low (A peptide classified as low indicates that the majority (over 75%) of the HPLC peak of the treated peptide disappeared as compared to the HPLC peak of the untreated peptide)” and the “Resistance to Pepsin (500 U/ml)” value (pepsin) was “High (A peptide classified as high indicates that the majority (at least 75%) of the HPLC peak of the treated peptide is still present as compared to the HPLC peak of the untreated peptide)”.
For “23 (GSEVIRCSGSKQCYGPCKQQTGCTNSKCMNKVCKCYGCG) [compound 23]”, the “Resistance to Temperature (75° C.)” value [1] was “High (A peptide classified as high indicates that the majority (at least 75%) of the HPLC peak of the treated peptide is still present as compared to the HPLC peak of the untreated peptide)”, the “Resistance to Temperature (100° C.)” value [1] was “Low (A peptide classified as low indicates that the majority (over 75%) of the HPLC peak of the treated peptide disappeared as compared to the HPLC peak of the untreated peptide)” and the “Resistance to DTT Reduction (10 mM)” value [2] was “Low (A peptide classified as low indicates that the majority (over 75%) of the HPLC peak of the treated peptide disappeared as compared to the HPLC peak of the untreated peptide)”. The “Resistance to Trypsin (500 U/ml)” value (trypsin) was “Low (A peptide classified as low indicates that the majority (over 75%) of the HPLC peak of the treated peptide disappeared as compared to the HPLC peak of the untreated peptide)” and the “Resistance to Pepsin (500 U/ml)” value (pepsin) was “High (A peptide classified as high indicates that the majority (at least 75%) of the HPLC peak of the treated peptide is still present as compared to the HPLC peak of the untreated peptide)”.
With “9 (GSQFCGTNGKPCVNGQCCGALRCVVTYHYADGVCLKMNP) [compound 9]” the “Resistance to Temperature (75° C.)” value [1] was “High (A peptide classified as high indicates that the majority (at least 75%) of the HPLC peak of the treated peptide is still present as compared to the HPLC peak of the untreated peptide)”, the “Resistance to Temperature (100° C.)” value [1] was “Low (A peptide classified as low indicates that the majority (over 75%) of the HPLC peak of the treated peptide disappeared as compared to the HPLC peak of the untreated peptide)” and the “Resistance to DTT Reduction (10 mM)” value [2] was “Low (A peptide classified as low indicates that the majority (over 75%) of the HPLC peak of the treated peptide disappeared as compared to the HPLC peak of the untreated peptide)”. For the same substance, the “Resistance to Trypsin (500 U/ml)” value (trypsin) was “Moderate (A peptide classified as medium indicates that about half (between 25% and 75%) of the HPLC peak of the treated peptide disappeared as compared to the HPLC peak of the untreated peptide)” and the “Resistance to Pepsin (500 U/ml)” value (pepsin) was “High (A peptide classified as high indicates that the majority (at least 75%) of the HPLC peak of the treated peptide is still present as compared to the HPLC peak of the untreated peptide)”.
